± gives the standard deviation of the averaged measurements.
Each sequence was assayed on Saccharomyces cerevisiae (assay: protein stability index of tFT-peptide fusion (C-terminal peptide) (PSI (0-1 scale)); higher = more stable (slower turnover)). Conditions: genetic background: wild type; temperature: 30 C.
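Further: PSI is a weighted mean of sequencing reads over stability bins, variants kept only with over 10 reads, mCherry proximal and sfGFP distal, peptide attached via GGGS linker.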

TQKKQKRKDQQR and TQPDLAPPLPRS are within error of each other in protein stability index: 0.654 ± 0.01 for the first, 0.65 ± 0.017 for the second.

TQRLPTPPSIPL and TQSSADCFTLDA are within error of each other in protein stability index: 0.672 ± 0.017 for the first, 0.719 ± 0.052 for the second.

TQYMRVVQAKPD and TRDTEKTGRREP are within error of each other in protein stability index: 0.659 ± 0.055 for the first, 0.715 ± 0.0013 for the second.

First: TRFLRCACCFVC
Second: TRGSRGARGGGW
The protein stability index of the first is lower: 0.565 ± 0.036 for the first, 0.716 ± 0.012 for the second.

Going from TRKFATPRITVV to TRKQSVIRIRMR, the protein stability index falls from 0.6939 ± 0.0038 to 0.653 ± 0.0082.

TRLAGINGLLSA and TRLDLIDSLRHL are within error of each other in protein stability index: 0.689 ± 0.022 for the first, 0.731 ± 0.044 for the second.

TRLLPQRPLGGV and TRMPTRRNEQIY are within error of each other in protein stability index: 0.717 ± 0.046 for the first, 0.683 ± 0.047 for the second.

Compared with TRMRWCGSGVKN, TRPLIRRRHWID is lower in protein stability index: 0.809 ± 0.067 for the first, 0.697 ± 0.025 for the second.

TRPSRRPPRPSS and TRPTPTRADCFG are within error of each other in protein stability index: 0.753 ± 0.22 for the first, 0.685 ± 0.026 for the second.

TRQRSDRPRAPR and TRRAAARAVSAR are within error of each other in protein stability index: 0.6523 ± 0.00075 for the first, 0.7 ± 0.066 for the second.

Going from TRRFGSIINWVG to TRRGPAGNKPRL, the protein stability index rises from 0.59 ± 0.065 to 0.749 ± 0.0092.

First: TRSADGFLGVMV
Second: TRSDILGAERWG
The protein stability index of the first is higher: 0.739 ± 0.0092 for the first, 0.6794 ± 0.0033 for the second.

TRSQTASRSPTG and TRTELGKRWIRR are within error of each other in protein stability index: 0.672 ± 0.017 for the first, 0.697 ± 0.061 for the second.

TRYKSMRAGVAG and TSAEYKIETIFT are within error of each other in protein stability index: 0.674 ± 0.067 for the first, 0.688 ± 0.036 for the second.

Going from TSAPPPPPPPPP to TSAPRGNGKPEQ, the protein stability index rises from 0.608 ± 0.021 to 0.678 ± 0.016.

TSCPPPLAPSYD and TSDPFGRPPETN are within error of each other in protein stability index: 0.6909 ± 0.0045 for the first, 0.643 ± 0.1 for the second.

Going from TSGTPSRTHTLR to TSLAPLPAPLRR, the protein stability index rises from 0.612 ± 0.025 to 0.725 ± 0.031.

Going from TSPPPPSPPAHH to TSPPPPSPPPPP, the protein stability index rises from 0.625 ± 0.024 to 0.785 ± 0.13.

First: TSSEREGHYCVR
Second: TSTTRRGPRSRF
The protein stability index of the first is lower: 0.693 ± 0.034 for the first, 0.8168 ± 0.0029 for the second.

Compared with TTEESGGEGEGG, TTKRQKRKKKQR is lower in protein stability index: 0.664 ± 0.014 for the first, 0.633 ± 0.015 for the second.

First: TTLATVLRTFPG
Second: TTRALEAPARPN
The protein stability index of the first is higher: 0.724 ± 0.031 for the first, 0.6518 ± 0.0054 for the second.

TTRHPRLHYIDP and TTTRSDALPRGG are within error of each other in protein stability index: 0.674 ± 0.019 for the first, 0.713 ± 0.024 for the second.

Going from TTTYQLSQTITI to TVATTIRVTKVV, the protein stability index falls from 0.646 ± 0.041 to 0.582 ± 0.022.

TVFFVLGTESRV and TVFPVLTTVEGL are within error of each other in protein stability index: 0.664 ± 0.032 for the first, 0.688 ± 0.03 for the second.

TVHTILYVPDEL and TVIKMEKKKDGG are within error of each other in protein stability index: 0.677 ± 0.021 for the first, 0.6691 ± 0.0047 for the second.

TVKSCGRTLFSW and TVLRPKERQEHN are within error of each other in protein stability index: 0.6874 ± 0.0051 for the first, 0.721 ± 0.038 for the second.

Going from TVPLPPPPFLDS to TVPNLTPALPPL, the protein stability index falls from 0.772 ± 0.042 to 0.525 ± 0.11.

Compared with TVRWRRGTGGAR, TVTPAARTWHGR is lower in protein stability index: 0.704 ± 0.019 for the first, 0.67782 ± 0.00032 for the second.

TVTPPAPCPPAG and TWYYRYSCCQLP are within error of each other in protein stability index: 0.709 ± 0.032 for the first, 0.696 ± 0.014 for the second.

TYKEHNKTRETG and TYLQYKQKMKKH are the same in protein stability index: 0.686 ± 0.076 for the first, 0.686 ± 0.15 for the second.

Compared with TYSILLRVNCFK, TYWAPPFPLSLP is lower in protein stability index: 0.601 ± 0.004 for the first, 0.52 ± 0.019 for the second.

Compared with VACFLCTPKWFE, VACIIIDFTRWY is lower in protein stability index: 0.69 ± 0.057 for the first, 0.536 ± 0.019 for the second.

Compared with VAESGRGAGGDF, VAFPRSSTLGPY is lower in protein stability index: 0.7314 ± 0.0029 for the first, 0.696 ± 0.027 for the second.

VAGAGAGREAAY and VAGLQGGSGEGG are within error of each other in protein stability index: 0.616 ± 0.026 for the first, 0.576 ± 0.06 for the second.

VAGTLPFMEFTS and VAIGGGLGGDRC are within error of each other in protein stability index: 0.722 ± 0.023 for the first, 0.719 ± 0.032 for the second.

Compared with VALPPSHLSAFL, VALSLTSIFFMS is lower in protein stability index: 0.6887 ± 0.0039 for the first, 0.556 ± 0.041 for the second.

VANGGVIVRGRC and VAPAHPPHHRNL are within error of each other in protein stability index: 0.668 ± 0.012 for the first, 0.6626 ± 0.0036 for the second.

VAPPIPSKAGHL and VAPPLAPSPPLP are within error of each other in protein stability index: 0.753 ± 0.2 for the first, 0.6678 ± 0.0013 for the second.

VAPPSSFPPPRL and VASDGGYGYLRF are within error of each other in protein stability index: 0.726 ± 0.056 for the first, 0.797 ± 0.077 for the second.

VASLGFVGFCRF and VAWAGRGPGRSG are the same in protein stability index: 0.713 ± 0.06 for the first, 0.713 ± 0.024 for the second.

VAWCYCSGDTGV and VAWYSLAEGCEG are within error of each other in protein stability index: 0.7 ± 0.035 for the first, 0.641 ± 0.043 for the second.

Compared with VCALGWWASWVW, VCDGIIQGNGTI is higher in protein stability index: 0.5512 ± 0.0013 for the first, 0.705 ± 0.021 for the second.

First: VCDLLLTLSFCV
Second: VCFCLGNVTMEF
The protein stability index of the first is lower: 0.587 ± 0.017 for the first, 0.732 ± 0.017 for the second.

Going from VCGRWVYPGGCR to VCGWGFLLGVFV, the protein stability index falls from 0.61 ± 0.01 to 0.5107 ± 0.0022.

First: VCGYLSIVIWLR
Second: VCIGVGGGVLGL
The protein stability index of the first is lower: 0.423 ± 0.24 for the first, 0.6746 ± 0.0036 for the second.

VCNLSRRGLCHG and VCPRLISPLILL are the same in protein stability index: 0.584 ± 0.11 for the first, 0.584 ± 0.027 for the second.

VCRADADRFVGL and VCRCYILSFPQR are within error of each other in protein stability index: 0.71 ± 0.059 for the first, 0.688 ± 0.028 for the second.

VCRGAIPIERFR and VCSEARRKSVAL are within error of each other in protein stability index: 0.715 ± 0.15 for the first, 0.673 ± 0.02 for the second.

First: VCVAACVGAHFA
Second: VDASQTRYSRGS
The protein stability index of the first is lower: 0.656 ± 0.083 for the first, 0.73964 ± 0.00026 for the second.

VDDIIGIRKRNT and VDFGTLISEDRM are within error of each other in protein stability index: 0.691 ± 0.07 for the first, 0.736 ± 0.036 for the second.

Compared with VDFLLRDPPGPS, VDGSYCGTLASY is lower in protein stability index: 0.7201 ± 0.0065 for the first, 0.6568 ± 0.0033 for the second.

Compared with VDHRFLWALSSF, VDRGGRVGERGR is lower in protein stability index: 0.751 ± 0.043 for the first, 0.597 ± 0.031 for the second.

VDSAPRPPPEPC and VDSSGSQPRGNR are within error of each other in protein stability index: 0.649 ± 0.041 for the first, 0.648 ± 0.039 for the second.

VDTNIRRTATYS and VDTPPPHHSPLL are within error of each other in protein stability index: 0.729 ± 0.066 for the first, 0.733 ± 0.068 for the second.

VEGCVKGGCGGG and VERSEGRLGVVG are within error of each other in protein stability index: 0.662 ± 0.052 for the first, 0.686 ± 0.08 for the second.

Going from VESGVLCPGVGA to VEVRRMCSGQLG, the protein stability index rises from 0.634 ± 0.02 to 0.7136 ± 0.00096.

First: VEWLGWFGISNK
Second: VFAGLHSLCFFF
The protein stability index of the first is higher: 0.76 ± 0.017 for the first, 0.641 ± 0.023 for the second.

Compared with VFATRALSQRLI, VFCGCGGCVSLG is higher in protein stability index: 0.526 ± 0.011 for the first, 0.655 ± 0.014 for the second.

VFDIQLLDGGGP and VFFPLFLNGSNV are within error of each other in protein stability index: 0.685 ± 0.025 for the first, 0.695 ± 0.018 for the second.

Compared with VFFRGVVVLLRL, VFGCAGVGGDCG is higher in protein stability index: 0.472 ± 0.048 for the first, 0.67 ± 0.028 for the second.

First: VFGRQVRVNGGS
Second: VFLGRWKFFFWG
The protein stability index of the first is higher: 0.707 ± 0.043 for the first, 0.619 ± 0.023 for the second.

Going from VFQVFSVGTCSG to VFRFGVCDDWCV, the protein stability index rises from 0.6451 ± 0.0039 to 0.765 ± 0.018.

VFRGGGAVGSVR and VFRSRTSSLFTP are within error of each other in protein stability index: 0.683 ± 0.043 for the first, 0.6794 ± 0.0058 for the second.

First: VFVDGVSYGGLC
Second: VFVFRLYFCGCC
The protein stability index of the first is higher: 0.6811 ± 0.0058 for the first, 0.495 ± 0.015 for the second.

VFVRSNSGACKN and VGAGAGGVGWVL are within error of each other in protein stability index: 0.682 ± 0.027 for the first, 0.749 ± 0.056 for the second.

VGCLGYNSAGIN and VGCPLSLDAPEG are within error of each other in protein stability index: 0.6968 ± 0.0065 for the first, 0.687 ± 0.029 for the second.

VGDGGGEVMGEA and VGEAGTRASVPV are within error of each other in protein stability index: 0.677 ± 0.053 for the first, 0.665 ± 0.12 for the second.

VGELCGVGGRGG and VGFCFDGVHFRA are within error of each other in protein stability index: 0.68 ± 0.13 for the first, 0.639 ± 0.016 for the second.

VGFFLGVLLSLL and VGFGLIVWSSGW are within error of each other in protein stability index: 0.521 ± 0.0085 for the first, 0.529 ± 0.0077 for the second.

Going from VGGAGDWRWGVW to VGGAVDFSVFFC, the protein stability index falls from 0.805 ± 0.018 to 0.585 ± 0.018.

VGGCRLTRSSVW and VGGDRVGPEPEC are within error of each other in protein stability index: 0.688 ± 0.011 for the first, 0.718 ± 0.063 for the second.

VGGEGKVVRGQE and VGGGACVWSRRR are within error of each other in protein stability index: 0.6518 ± 0.00034 for the first, 0.698 ± 0.05 for the second.

VGGGWGGGVVLV and VGGLMVYTGDVA are within error of each other in protein stability index: 0.696 ± 0.0071 for the first, 0.704 ± 0.015 for the second.

VGGRVCQSEGVE and VGGWGERGRGGS are within error of each other in protein stability index: 0.685 ± 0.0058 for the first, 0.696 ± 0.015 for the second.

VGHRGVQAGGVG and VGKTVKQLSLIS are within error of each other in protein stability index: 0.618 ± 0.016 for the first, 0.597 ± 0.039 for the second.

First: VGLAVWAAKLGR
Second: VGLEVGPLVGGE
The protein stability index of the first is higher: 0.739 ± 0.018 for the first, 0.6921 ± 0.0029 for the second.

VGLGLSVGKKEI and VGLLWEYVRLDG are within error of each other in protein stability index: 0.651 ± 0.098 for the first, 0.7079 ± 0.0036 for the second.

First: VGLTGFQHTEWG
Second: VGMGRAPGPDPA
The protein stability index of the first is higher: 0.753 ± 0.027 for the first, 0.646 ± 0.0093 for the second.

VGPGRRGWEGAP and VGPPWSISLSII are within error of each other in protein stability index: 0.663 ± 0.022 for the first, 0.636 ± 0.013 for the second.

VGQVVTCFMSDA and VGSCGGGKVVVE are within error of each other in protein stability index: 0.678 ± 0.028 for the first, 0.6555 ± 0.00076 for the second.
